Data on ten molecules can be found in ChEMBL document CHEMBL3600307, “Synthesis, kinetic mechanism and docking studies of vanillin derivatives as inhibitors of mushroom tyrosinase” (Bioorg Med Chem, 2015).

Data set [1] deals with T1, Tyrosinase (Agaricus bisporus, UniProt O42713).
T1 sequence (O42713 whole entry): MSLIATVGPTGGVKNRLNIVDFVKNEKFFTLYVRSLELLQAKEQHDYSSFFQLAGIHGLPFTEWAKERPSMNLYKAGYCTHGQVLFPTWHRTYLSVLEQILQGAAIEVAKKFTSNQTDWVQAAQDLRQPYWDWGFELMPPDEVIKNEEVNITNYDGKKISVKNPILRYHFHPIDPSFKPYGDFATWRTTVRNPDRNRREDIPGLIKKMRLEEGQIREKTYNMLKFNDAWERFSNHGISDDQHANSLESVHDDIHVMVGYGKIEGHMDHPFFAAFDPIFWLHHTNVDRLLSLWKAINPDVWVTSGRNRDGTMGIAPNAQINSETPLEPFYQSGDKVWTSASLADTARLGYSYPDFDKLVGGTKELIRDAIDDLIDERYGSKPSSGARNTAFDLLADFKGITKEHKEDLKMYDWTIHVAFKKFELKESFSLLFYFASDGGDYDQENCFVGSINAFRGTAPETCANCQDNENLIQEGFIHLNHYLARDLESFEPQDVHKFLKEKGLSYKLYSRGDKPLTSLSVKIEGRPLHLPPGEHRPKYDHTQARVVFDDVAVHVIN

In data set [2] the target is T2, Tyrosinase (Agaricus bisporus) (UniProt O42713).
T2 sequence (whole entry): T1 sequence (O42713 whole entry)
Kind of data set: Reversible inhibition of mushroom tyrosinase using L-DOPA as substrate at 10.6 to 342 uM.

Data set [3] addresses T1, Tyrosinase. This is another data set of the same source.
Data set [4] deals with T1, Tyrosinase. This is another data set of the same source.
A further data set deals with L929. The data set is described as follows: Cytotoxicity against mouse L929 cells assessed as decrease in cell viability after 24 hrs by MTT assay. It is filed as cell-based. The following applies: l929, 24 h.
Data set [5] addresses T2, Tyrosinase (Agaricus bisporus). To be noted: 8.75 to 140 uM.
Another data set relates to HaCaT. Kind of data set: Cytotoxicity against human HaCaT cells assessed as decrease in cell viability after 24 hrs by MTT assay. It is filed as cell-based.
Substrate in data set [6]: COc1cc(C=O)ccc1OC(=O)COC(=O)/C=C/c1ccc(Cl)cc1
To be noted: Agaricus bisporus; 8.3 uM.

Compound in data set [7]: COc1cc(C=O)ccc1OC(=O)CN1CCN(C)CC1
The data set is described as follows: Non competitive inhibition of mushroom tyrosinase using L-DOPA as substrate assessed as enzyme Km at 10.68 uM preincubated for 10 mins followed by substrate addition measured after 20 mins by Lineweaver-Burk plot analysis (reference value: […] to […] mM). The following applies: Agaricus bisporus.

Substrate in data set [8]: COc1cc(C=O)ccc1OC(=O)COC(=O)/C=C/c1ccc(Cl)cc1
To be noted: Agaricus bisporus; 8.3 uM. The source holds these as a separate data set.

Substrate in data set [9]: COc1cc(C=O)ccc1OC(=O)COC(=O)/C=C/c1ccc(O)cc1
The following applies: Agaricus bisporus; 8.75 uM.

Substrate in data set [10]: COc1cc(C=O)ccc1OC(=O)COC(=O)c1ccc(O)cc1O
To be noted: Agaricus bisporus; 289 uM.

Compound in data set [11]: COc1cc(C=O)ccc1OC(=O)CN1CCN(C)CC1
The data set is described as follows: Non competitive inhibition of mushroom tyrosinase using L-DOPA as substrate assessed as enzyme Vmax at 342 uM preincubated for 10 mins followed by substrate addition measured after 20 mins by Lineweaver-Burk plot analysis (reference value: […] x 10^-4 to 2.66 x 10^-4 deltaA/s). The following applies: Agaricus bisporus.

Compound in data set [12]: COc1cc(C=O)ccc1OC(=O)CN1CCN(C)CC1
Kind of data set: Non competitive inhibition of mushroom tyrosinase using L-DOPA as substrate assessed as enzyme Vmax at 10.68 uM preincubated for 10 mins followed by substrate addition measured after 20 mins by Lineweaver-Burk plot analysis (reference value: […] x 10^-4 to 2.66 x 10^-4 deltaA/s). The following applies: Agaricus bisporus.

Compound in data set [13]: COc1cc(C=O)ccc1OC(=O)CN1CCN(C)CC1
Kind of data set: Non competitive inhibition of mushroom tyrosinase using L-DOPA as substrate assessed as enzyme Vmax at 21.37 uM preincubated for 10 mins followed by substrate addition measured after 20 mins by Lineweaver-Burk plot analysis (reference value: […] x 10^-4 to 2.66 x 10^-4 deltaA/s). The following applies: Agaricus bisporus.

Substrate in data set [14]: COc1cc(C=O)ccc1OC(=O)COC(=O)/C=C/c1ccc(O)cc1
The following applies: Agaricus bisporus; 8.75 uM. This is another data set of the same source.

Substrate in data set [15]: COc1cc(C=O)ccc1OC(=O)COC(=O)/C=C/c1ccc(O)cc1
To be noted: Agaricus bisporus; 17.5 uM.

Substrate in data set [16]: COc1cc(C=O)ccc1OC(=O)COC(=O)c1ccc(O)cc1O
To be noted: Agaricus bisporus; 289 uM. The source holds these as a separate data set.

Compound in data set [17]: COc1cc(C=O)ccc1OC(=O)CN1CCN(C)CC1
Kind of data set: Non competitive inhibition of mushroom tyrosinase using L-DOPA as substrate assessed as enzyme Km at 342 uM preincubated for 10 mins followed by substrate addition measured after 20 mins by Lineweaver-Burk plot analysis (reference value: […] to […] mM). To be noted: Agaricus bisporus.

Substrate in data set [18]: COc1cc(C=O)ccc1OC(=O)COC(=O)c1ccc(O)cc1O
To be noted: Agaricus bisporus; 144.5 uM.

Substrate in data set [19]: COc1cc(C=O)ccc1OC(=O)COC(=O)/C=C/c1ccc(Cl)cc1
The following applies: Agaricus bisporus; 16.6 uM.

Substrate in data set [20]: COc1cc(C=O)ccc1OC(=O)COC(=O)/C=C/c1ccc(Cl)cc1
The following applies: Agaricus bisporus; 16.6 uM. This is another data set of the same source.

Substrate in data set [21]: COc1cc(C=O)ccc1OC(=O)COC(=O)c1ccc(O)cc1O
The following applies: Agaricus bisporus; 72.2 uM.

Substrate in data set [22]: COc1cc(C=O)ccc1OC(=O)COC(=O)c1ccc(O)cc1O
To be noted: Agaricus bisporus; 144.5 uM. This is another data set of the same source.

Compound in data set [23]: COc1cc(C=O)ccc1OC(=O)CN1CCN(C)CC1
Kind of data set: Non competitive inhibition of mushroom tyrosinase using L-DOPA as substrate assessed as enzyme Km at 85.5 uM preincubated for 10 mins followed by substrate addition measured after 20 mins by Lineweaver-Burk plot analysis (reference value: […] to […] mM). The following applies: Agaricus bisporus.

Substrate in data set [24]: COc1cc(C=O)ccc1OC(=O)COC(=O)/C=C/c1ccc(Cl)cc1
To be noted: Agaricus bisporus; 33.3 uM.

Substrate in data set [25]: COc1cc(C=O)ccc1OC(=O)COC(=O)/C=C/c1ccc(O)cc1
To be noted: Agaricus bisporus; 17.5 uM. The source holds these as a separate data set.

Substrate in data set [26]: COc1cc(C=O)ccc1OC(=O)COC(=O)c1ccc(O)cc1O
To be noted: Agaricus bisporus; 72.2 uM. The source holds these as a separate data set.

Compound in data set [27]: COc1cc(C=O)ccc1OC(=O)CN1CCN(C)CC1
The data set is described as follows: Non competitive inhibition of mushroom tyrosinase using L-DOPA as substrate assessed as enzyme Vmax at 42.75 uM preincubated for 10 mins followed by substrate addition measured after 20 mins by Lineweaver-Burk plot analysis (reference value: […] x 10^-4 to 2.66 x 10^-4 deltaA/s). The following applies: Agaricus bisporus.

Compound in data set [28]: COc1cc(C=O)ccc1OC(=O)CN1CCN(C)CC1
Kind of data set: Non competitive inhibition of mushroom tyrosinase using L-DOPA as substrate assessed as enzyme Vmax at 85.5 uM preincubated for 10 mins followed by substrate addition measured after 20 mins by Lineweaver-Burk plot analysis (reference value: […] x 10^-4 to 2.66 x 10^-4 deltaA/s). The following applies: Agaricus bisporus.

Compound in data set [29]: COc1cc(C=O)ccc1OC(=O)CN1CCN(C)CC1
Kind of data set: Non competitive inhibition of mushroom tyrosinase using L-DOPA as substrate assessed as enzyme Km at 42.75 uM preincubated for 10 mins followed by substrate addition measured after 20 mins by Lineweaver-Burk plot analysis (reference value: […] to […] mM). The following applies: Agaricus bisporus.

Compound in data set [30]: COc1cc(C=O)ccc1OC(=O)CN1CCN(C)CC1
The data set is described as follows: Non competitive inhibition of mushroom tyrosinase using L-DOPA as substrate assessed as enzyme Km at 21.37 uM preincubated for 10 mins followed by substrate addition measured after 20 mins by Lineweaver-Burk plot analysis (reference value: […] to […] mM). To be noted: Agaricus bisporus.

Calls of active or inactive are those of the source. No cut-off for these calls is given here.

Consider `COc1cc(C=O)ccc1OC(=O)CCl`, for which, at Tyrosinase [1], the IC50 came to 78.9 µM.

Molecule `COc1cc(C=O)ccc1OC(=O)COC(=O)c1cc(O)cc(O)c1` displayed an IC50 against Tyrosinase [1] of 59.8 µM.

`COc1cc(C=O)ccc1OC(=O)CN1CCN(c2ccccc2)CC1` displayed an IC50 against Tyrosinase [1] of 101 µM. This IC50 is about 1.7-fold higher than that of the molecule before.

On to `COc1cc(C=O)ccc1OC(=O)CN1CCN(C)CC1`, for which the inhibition result in data set [2] is “Active”. The molecule further came in with a Ki on Tyrosinase [3] of 60 µM. The same molecule came in with a 50% inhibitory concentration (IC50) on Tyrosinase [1] of 21.6 µM.

As to `COc1cc(C=O)ccc1OC(=O)COC(=O)/C=C/c1ccc(Cl)cc1`, the figures for the Ki on Tyrosinase [3] and on Tyrosinase [4] were 41 µM and 100 µM, respectively. In addition, the IC50 against Tyrosinase [1] worked out at 30.9 µM.

The molecule `COc1cc(C=O)ccc1OC(=O)COC(=O)c1ccc(O)c(O)c1` had an IC50 on Tyrosinase [1] of 157 µM.

Consider `COc1cc(C=O)ccc1OC(=O)COC(=O)c1ccc(O)cc1`, for which, at Tyrosinase [1], 201 µM corresponded to half-maximal inhibition (IC50).

With `COc1cc(C=O)ccc1OC(=O)COC(=O)/C=C/c1ccc(O)cc1`, the values for the inhibition constant Ki on Tyrosinase [3] and at Tyrosinase [4] were 13 µM and 53 µM, respectively. Besides, half-maximal inhibition against Tyrosinase [1] (IC50) required 16.1 µM. Also, the Activity entry in the data set with L929 and in the data set on HaCaT was “Dose-dependent effect” throughout. Also, in [5], the inhibition entry was “Active”.

On to `COc1cc(C=O)ccc1OC(=O)COC(=O)c1ccc(O)cc1O`, for which the inhibition constant (Ki) on Tyrosinase [3] was found to be 65 µM; at Tyrosinase [4], 205 µM. At Tyrosinase [1], this molecule showed an IC50 of 42.6 µM.

B1: Tyrosinase (Agaricus bisporus), O42713 (protein)
chain: T1 sequence (O42713 whole entry)
In the case of B1, the Michaelis-Menten constant (Km) in data set [6] is 900 µM; in data set [7], 400 µM; in data set [9], 1330 µM; in [15] it was 1530 µM; in data set [16] it was 1250 µM; in data set [17] it was 400 µM. The Km in data set [18] is 1000 µM; in data set [19] it was 1000 µM; in data set [23] it was 400 µM; in data set [26] it was 830 µM; in data set [29], 400 µM; in [30] it was 400 µM. For the same molecule, the Vmax (10'-4deltaA/s) in [8] was 2.22; in [10], 1.05; in [12], 1.66; in data set [13] it was 1.42; in data set [14], 2.22; in data set [20], 1.96. In addition, the Vmax (10'-4deltaA/s) in data set [21] stood at 2; in data set [22], 1.53; in data set [24] it was 1.85; in data set [25], 2; in data set [27], 1.17. In addition, the Vmax (10'-5deltaA/s) in data set [11] came to 2.85; in [28], 7.14.
